From the supplement of paper PMC11908140

B1: library; numbered along this chain (parent)
chain: MRKPRAAVGSGHRKQAASQEGRQKHAKNNSQAKPSACDGLARQPEEVVLQASVSSYHLFRDVAEVTAFRGSLLSWYDQEKRDLPWRRRAEDEMDLDRRAYAVWVSEVMLQQTQVATVINYYTGWMQKWPTLQDLASASLEEVNQLWAGLGYYSRGRRLQEGARKVVEELGGHMPRTAETLQQLLPGVGRYTAGAIASIAFGQATGVVDGNVARVLCRVRAIGADPSSTLVSQQLWGLAQQLVDPARPGDFNQAAMELGATVCTPQRPLCSQCPVESLCRARQRVEQEQLLASGSLSGSPDVEECAPNTGQCHLCLPPSEPWDQTLGVVNFPRKASRKPPREESSATCVLEQPGALGAQILLVQRPNSGLLAGLWEFPSVTWEPSEQLQRKALLQELQRWAGPLPATHLRHLGEVVHTFSHIKLTYQVYGLALEGQTPVTTVPPGARWLTQEEFHTAAVSTAMKKVFRVYQGQQPGTCMGSKRSQVSSPCSRKKPRMGQQVLDNFFRSHISTDAHSLNSAAQ

Variants of: B1
Test: 8OG:A repair function score (normalized; synonymous = 0, nonsense = -1) (normalized log-likelihood score); higher = more repair activity (WT-like)
Details: with 8OG:A DNA repair reporter (GFP) in HEK-293 MUTYH KO cells
Method in brief: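 With 10 pg/ml doxycycline, MUTYH knockout HEK-293 cells carrying lentiviral MUTYH cDNA NNN codon-scan libraries were co-transfected with mCherry and an 8OG:A GFP repair reporter. Viable mCherry+ cells were sorted into GFP+ (repair) and GFP− bins at 72 h, three replicates per tile, and tile amplicons were sequenced. Per-tile Rosace fitness scores were then normalized into a repair function score anchored on synonymous and nonsense distributions. Medians were fixed at 0 for synonymous and -1 for nonsense, excluding variants under 300 counts per million at the start.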

Variant | 8OG:A repair function score
MRKPRAAVGSGHRKQAASQEGRQKHAKNNSQAKPSACDGLARQPEEVVLQASVSSYHLFRDVAEVTAFRGSLLSWYDQEKRDLPWRRRAEDEMDLDRRAYAVWVSEVMLQQTQVATVINYYTGWMQKWPTLQDLASASLEEVNQLWAGLGYYSRGRRLQEGARKVVEELGGHYPRTAETLQQLLPGVGRYTAGAIASIAFGQATGVVDGNVARVLCRVRAIGADPSSTLVSQQLWGLAQQLVDPARPGDFNQAAMELGATVCTPQRPLCSQCPVESLCRARQRVEQEQLLASGSLSGSPDVEECAPNTGQCHLCLPPSEPWDQTLGVVNFPRKASRKPPREESSATCVLEQPGALGAQILLVQRPNSGLLAGLWEFPSVTWEPSEQLQRKALLQELQRWAGPLPATHLRHLGEVVHTFSHIKLTYQVYGLALEGQTPVTTVPPGARWLTQEEFHTAAVSTAMKKVFRVYQGQQPGTCMGSKRSQVSSPCSRKKPRMGQQVLDNFFRSHISTDAHSLNSAAQ [M173Y] | -0.366
MRKPRAAVGSGHRKQAASQEGRQKHAKNNSQAKPSACDGLARQPEEVVLQASVSSYHLFRDVAEVTAFRGSLLSWYDQEKRDLPWRRRAEDEMDLDRRAYAVWVSEVMLQQTQVATVINYYTGWMQKWPTLQDLASASLEEVNQLWAGLGYYSRGRRLQEGARKVVEELGGHTPRTAETLQQLLPGVGRYTAGAIASIAFGQATGVVDGNVARVLCRVRAIGADPSSTLVSQQLWGLAQQLVDPARPGDFNQAAMELGATVCTPQRPLCSQCPVESLCRARQRVEQEQLLASGSLSGSPDVEECAPNTGQCHLCLPPSEPWDQTLGVVNFPRKASRKPPREESSATCVLEQPGALGAQILLVQRPNSGLLAGLWEFPSVTWEPSEQLQRKALLQELQRWAGPLPATHLRHLGEVVHTFSHIKLTYQVYGLALEGQTPVTTVPPGARWLTQEEFHTAAVSTAMKKVFRVYQGQQPGTCMGSKRSQVSSPCSRKKPRMGQQVLDNFFRSHISTDAHSLNSAAQ [M173T] | -0.402
MRKPRAAVGSGHRKQAASQEGRQKHAKNNSQAKPSACDGLARQPEEVVLQASVSSYHLFRDVAEVTAFRGSLLSWYDQEKRDLPWRRRAEDEMDLDRRAYAVWVSEVMLQQTQVATVINYYTGWMQKWPTLQDLASASLEEVNQLWAGLGYYSRGRRLQEGARKVVEELGGHWPRTAETLQQLLPGVGRYTAGAIASIAFGQATGVVDGNVARVLCRVRAIGADPSSTLVSQQLWGLAQQLVDPARPGDFNQAAMELGATVCTPQRPLCSQCPVESLCRARQRVEQEQLLASGSLSGSPDVEECAPNTGQCHLCLPPSEPWDQTLGVVNFPRKASRKPPREESSATCVLEQPGALGAQILLVQRPNSGLLAGLWEFPSVTWEPSEQLQRKALLQELQRWAGPLPATHLRHLGEVVHTFSHIKLTYQVYGLALEGQTPVTTVPPGARWLTQEEFHTAAVSTAMKKVFRVYQGQQPGTCMGSKRSQVSSPCSRKKPRMGQQVLDNFFRSHISTDAHSLNSAAQ [M173W] | -0.276
MRKPRAAVGSGHRKQAASQEGRQKHAKNNSQAKPSACDGLARQPEEVVLQASVSSYHLFRDVAEVTAFRGSLLSWYDQEKRDLPWRRRAEDEMDLDRRAYAVWVSEVMLQQTQVATVINYYTGWMQKWPTLQDLASASLEEVNQLWAGLGYYSRGRRLQEGARKVVEELGGHSPRTAETLQQLLPGVGRYTAGAIASIAFGQATGVVDGNVARVLCRVRAIGADPSSTLVSQQLWGLAQQLVDPARPGDFNQAAMELGATVCTPQRPLCSQCPVESLCRARQRVEQEQLLASGSLSGSPDVEECAPNTGQCHLCLPPSEPWDQTLGVVNFPRKASRKPPREESSATCVLEQPGALGAQILLVQRPNSGLLAGLWEFPSVTWEPSEQLQRKALLQELQRWAGPLPATHLRHLGEVVHTFSHIKLTYQVYGLALEGQTPVTTVPPGARWLTQEEFHTAAVSTAMKKVFRVYQGQQPGTCMGSKRSQVSSPCSRKKPRMGQQVLDNFFRSHISTDAHSLNSAAQ [M173S] | -0.859
MRKPRAAVGSGHRKQAASQEGRQKHAKNNSQAKPSACDGLARQPEEVVLQASVSSYHLFRDVAEVTAFRGSLLSWYDQEKRDLPWRRRAEDEMDLDRRAYAVWVSEVMLQQTQVATVINYYTGWMQKWPTLQDLASASLEEVNQLWAGLGYYSRGRRLQEGARKVVEELGGHRPRTAETLQQLLPGVGRYTAGAIASIAFGQATGVVDGNVARVLCRVRAIGADPSSTLVSQQLWGLAQQLVDPARPGDFNQAAMELGATVCTPQRPLCSQCPVESLCRARQRVEQEQLLASGSLSGSPDVEECAPNTGQCHLCLPPSEPWDQTLGVVNFPRKASRKPPREESSATCVLEQPGALGAQILLVQRPNSGLLAGLWEFPSVTWEPSEQLQRKALLQELQRWAGPLPATHLRHLGEVVHTFSHIKLTYQVYGLALEGQTPVTTVPPGARWLTQEEFHTAAVSTAMKKVFRVYQGQQPGTCMGSKRSQVSSPCSRKKPRMGQQVLDNFFRSHISTDAHSLNSAAQ [M173R] | -1.15
MRKPRAAVGSGHRKQAASQEGRQKHAKNNSQAKPSACDGLARQPEEVVLQASVSSYHLFRDVAEVTAFRGSLLSWYDQEKRDLPWRRRAEDEMDLDRRAYAVWVSEVMLQQTQVATVINYYTGWMQKWPTLQDLASASLEEVNQLWAGLGYYSRGRRLQEGARKVVEELGGHVPRTAETLQQLLPGVGRYTAGAIASIAFGQATGVVDGNVARVLCRVRAIGADPSSTLVSQQLWGLAQQLVDPARPGDFNQAAMELGATVCTPQRPLCSQCPVESLCRARQRVEQEQLLASGSLSGSPDVEECAPNTGQCHLCLPPSEPWDQTLGVVNFPRKASRKPPREESSATCVLEQPGALGAQILLVQRPNSGLLAGLWEFPSVTWEPSEQLQRKALLQELQRWAGPLPATHLRHLGEVVHTFSHIKLTYQVYGLALEGQTPVTTVPPGARWLTQEEFHTAAVSTAMKKVFRVYQGQQPGTCMGSKRSQVSSPCSRKKPRMGQQVLDNFFRSHISTDAHSLNSAAQ [M173V] | -0.0935
